# Assay results taken from article PMC4737184, “The activity of CouR, a MarR family transcriptional regulator, is modulated through a novel molecular mechanism” (Nucleic Acids Research, 2015).
# Numbering of substitutions follows the chain as printed.
# T1: CouR (Rhodococcus jostii, UniProt Q0S6D0)
# T1 construct: gene RHA1_ro05125; full-length, homodimer; crystal model residues 4–146
# T1 sequence (Q0S6D0 1-146): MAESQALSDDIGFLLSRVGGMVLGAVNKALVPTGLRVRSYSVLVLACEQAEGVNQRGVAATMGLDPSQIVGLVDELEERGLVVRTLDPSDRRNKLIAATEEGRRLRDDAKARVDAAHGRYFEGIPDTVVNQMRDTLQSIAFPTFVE
# T2: CouR (Rhodococcus jostii RHA1, UniProt Q0S6D0 1-146)
# T2 sequence: T1 sequence (Q0S6D0 1-146)
# T3: CouR R36A (Rhodococcus jostii RHA1, UniProt Q0S6D0 1-146, R36A)
# T3 sequence: T1 sequence (Q0S6D0 1-146) with R36A
# T4: CouR R38A (Rhodococcus jostii RHA1, UniProt Q0S6D0 1-146, R38A)
# T4 sequence: T1 sequence (Q0S6D0 1-146) with R38A
# T5: CouR R36A/R38A (Rhodococcus jostii RHA1, UniProt Q0S6D0 1-146, R36A;R38A)
# T5 sequence: T1 sequence (Q0S6D0 1-146) with R36A, R38A
# B1: couTp (dsDNA)
# DNA 1: CATTAATCATTGAACTTGTCAATGGAAGAGA
# DNA 2: TCTCTTCCATTGACAAGTTCAATGATTAATG
# B2: couHp (dsDNA)
# DNA 1: TATCAATCATTGATAATGTCAATGATTGACT
# DNA 2: AGTCAATCATTGACATTATCAATGATTGATA
# B3: couRp_couNp (dsDNA)
# DNA 1: CATTGATGATTGAGAATGTCAATGATTAAGG
# DNA 2: CCTTAATCATTGACATTCTCAATCATCAATG
# B4: couRp_couNp_m (dsDNA)
# DNA 1: CATTGATGTAACTGAATGAGTTAGATTAAGG
# DNA 2: CCTTAATCTAACTCATTCAGTTACATCAATG
# How the values were obtained:
# CouR [1] = target: T6, CouR (Rhodococcus jostii, UniProt Q0S6D0, R38A); test: ITC; type: binding
# T6 construct: gene RHA1_ro05125; full-length
# CouR [2] = target: T7, CouR (Rhodococcus jostii, UniProt Q0S6D0, R36A); test: ITC; type: binding
# T7 construct: gene RHA1_ro05125; full-length
# CouR [3] = target: T1, CouR; test: ([…] Å) and ITC; EMSA in support; type: binding
# CouR [4] = target: T8, CouR (Rhodococcus jostii, UniProt Q0S6D0, R36A/R38A); test: ITC; type: binding
# T8 construct: gene RHA1_ro05125; full-length
# CouR [5] = target: T2, CouR; test: competition; 1 uM unlabelled vs 1 nM DIG-couRp_couNp, 200 nM CouR; EMSA: 20 mM HEPES pH 7.6, 10 mM (NH4)2SO4, 30 mM KCl, 1 mM DTT, 1 mM EDTA, 0.2% Tween 20, 100 ug/ml poly[d(I-C)], 1 nM probe, 25 C, 20 min; details: protein: recombinant; tags: His-tag removed by Factor Xa; extra N-terminal His residue remains; chain copies: 2; blunt
# CouR [6] = target: T2, CouR; test: EMSA; 25-200 nM CouR; EMSA: 20 mM HEPES pH 7.6, 10 mM (NH4)2SO4, 30 mM KCl, 1 mM DTT, 1 mM EDTA, 0.2% Tween 20, 100 ug/ml poly[d(I-C)], 1 nM probe, 25 C, 20 min; details: protein: recombinant; tags: His-tag removed by Factor Xa; extra N-terminal His residue remains; chain copies: 2; label: 3' DIG-11-ddUTP (probe); blunt
# CouR R36A = target: T3, CouR R36A; test: EMSA; 50 or 200 nM protein; EMSA: 20 mM HEPES pH 7.6, 10 mM (NH4)2SO4, 30 mM KCl, 1 mM DTT, 1 mM EDTA, 0.2% Tween 20, 100 ug/ml poly[d(I-C)], 1 nM probe, 25 C, 20 min; details: protein: recombinant; tags: His-tag removed by Factor Xa; extra N-terminal His residue remains; chain copies: 2; label: 3' DIG-11-ddUTP (probe); blunt
# CouR R38A = target: T4, CouR R38A; test: as above; details: protein: recombinant; tags: His-tag removed by Factor Xa; extra N-terminal His residue remains; chain copies: 2; label: 3' DIG-11-ddUTP (probe); blunt
# CouR R36A/R38A = target: T5, CouR R36A/R38A; test: as above; details: protein: recombinant; tags: His-tag removed by Factor Xa; extra N-terminal His residue remains; chain copies: 2; label: 3' DIG-11-ddUTP (probe); blunt
molecule,measurement,setting,value
CC(C)(COP(=O)(O)OP(=O)(O)OC[C@H]1O[C@@H](n2cnc3c(N)ncnc32)[C@H](O)[C@@H]1OP(=O)(O)O)[C@@H](O)C(=O)NCCC(=O)NCCSC(=O)/C=C/c1ccc(O)cc1 [p-coumaroyl–CoA],Kd,CouR [1],25 µM
same,Kd,CouR [2],28 µM
same,Kd,CouR [3],11 µM
same,Kd,CouR [4],89 µM
B1,binding result,CouR [5],binds
B2,binding result,CouR [5],binds
B3,binding result,CouR [6],binds
same,binding result,CouR R36A,no binding
same,binding result,CouR R38A,no binding
same,binding result,CouR R36A/R38A,no binding
B4,binding result,CouR [6],no binding
